The values below come from patent US20220056125A1 (CEPHALON, published 2022).

Numbering of substitutions follows the chain as printed. Where “and” joins values, the source holds several entries; their conditions need not be identical. Equal entries are not always repeated.

Sequences and labels used below:
T1: human PAR-2 (human, UniProt P55085 26-397)
T1 sequence: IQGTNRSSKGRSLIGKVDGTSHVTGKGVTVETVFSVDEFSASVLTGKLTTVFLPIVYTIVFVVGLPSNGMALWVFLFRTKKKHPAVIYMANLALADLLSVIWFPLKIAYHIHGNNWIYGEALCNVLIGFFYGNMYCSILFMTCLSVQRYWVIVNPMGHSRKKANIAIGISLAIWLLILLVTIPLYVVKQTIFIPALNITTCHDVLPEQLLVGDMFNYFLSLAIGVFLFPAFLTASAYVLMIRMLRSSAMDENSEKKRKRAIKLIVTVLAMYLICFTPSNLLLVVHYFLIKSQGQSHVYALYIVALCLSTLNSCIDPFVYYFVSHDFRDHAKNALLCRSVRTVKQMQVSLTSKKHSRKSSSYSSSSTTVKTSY

T2: human PAR-1 (human, UniProt P25116 22-425)
T2 construct: also called huPAR-1
T2 sequence: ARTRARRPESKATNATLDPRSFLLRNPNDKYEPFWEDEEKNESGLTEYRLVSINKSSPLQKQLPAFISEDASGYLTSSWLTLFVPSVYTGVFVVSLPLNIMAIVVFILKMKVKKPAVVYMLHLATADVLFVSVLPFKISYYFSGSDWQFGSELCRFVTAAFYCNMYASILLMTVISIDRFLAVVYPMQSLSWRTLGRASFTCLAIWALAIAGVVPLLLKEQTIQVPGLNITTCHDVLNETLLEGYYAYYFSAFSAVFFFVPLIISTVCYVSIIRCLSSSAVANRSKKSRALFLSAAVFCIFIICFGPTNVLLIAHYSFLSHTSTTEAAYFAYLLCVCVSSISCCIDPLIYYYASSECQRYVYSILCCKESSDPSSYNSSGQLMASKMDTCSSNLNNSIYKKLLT

B1: Ab86 (antibody, human IgG4, V domains shown)
VH: EVQLVESGGGLVQPKGSLKLSCAASGFTFNTYAMHWVRQAPGKGLEWVARIRSKNVHYATYYADSVKDRFTISRDDSQNMLYLQMNNLKTEDTAMYYCVREDYYGSSYDYWGQGTTLTVSS
VL: DIVMTQSHKFMSTSLGDRVSITCKASQDVGSAVAWHQQKPGQSPKVLIYWASNRHTGVPDRFTGSGSGTDFTLTISNVQSEDLADYFCQQYSSYPFTFGSGTKLEIK
notes: also called Anti-PAR-2 antibody # 86
B2: Ab84 (antibody, human IgG4, V domains shown)
VH: B1 VH with V5I, T31S, N79S, Y97F
VL: B1 VL with L15V, V46L, A51T, S65R, G66R, S93T
notes: also called Anti-PAR-2 antibody # 84
B3: Ab87 (antibody, human IgG4, V domains shown)
VH: B1 VH with N30Y, T31S, K43R
VL: B1 VL with L15V, G30R, V46L
notes: also called Anti-PAR-2 antibody # 87
B4: Ab114 (antibody, human IgG4, V domains shown)
VH: QVQLQQSGPELVKPGASVKISCKTSGFTFTSYYIHWVKQRPGQGLEWIGWIYPGSGNTYYNERFKGKATLTADTSSSTASMQLSSLTSEDSAVYYCANGPLFYGSSYWYFDVWGTGTTVTVSS
VL: DVQITQSPSYLAASPGETITINCRASKSISRYLAWYQEKPGKTNKLLIYSGSTLQSGVPSRFSGSGFGTDFTLTISSLEPEDFAMYYCQQHNKYPLTFGAGTKLELK
notes: also called Anti-PAR-2 antibody # 114
B5: Ab343 (antibody, human IgG4, V domains shown)
VH: EVQLVESGGGLVQPGRSLKLSCVASGFTFNNYWMSWIRQAPGKGLEWVASITNTGGRIFYPDSVKGRFTISRDNAQNTLYLQMNSLRSEDAATYYCTRDRLYYGSNWFTYWGQGTLVTVSS
VL: DIQMTQSPHSLSASLGETVSIECLASEAISNYLAWYQQKPGKSPQLLIYYASSLKDGVPSRISGSGSGTQYSLKISNMQPEDEGVYYCQQGYKYPRTFGGGTKLELK
notes: also called Anti-PAR-2 antibody # 343
B6: Ab392 (antibody, human IgG4, V domains shown)
VH: EVQLVESGGGLVQPGRSLKLSCVASGFTFNNKWMTWIRQAPGKGLEWIASITNTGGRTFYPDSVKGRFTISRDDAKSTLYLQMNSLRSEDTATYYCTRATIRRGASYFDYWGQGVMVTVSS
VL: B5 VL with T18G, A28G, Y36F, K55Q, I62F, R96W
notes: also called Anti-PAR-2 antibody # 392
B7: Ab311 (antibody, human IgG4, V domains shown)
VH: QVQLKESGPGLVQPSQTLSLSCTVSGFSLTTYGVIWVRQPPGKGLMWMGVIWGNGNTYYNSPLKSRLSISRDTSKSQVFLKMNNLQSEDTAMYFCGRWRGYKDYPFDYWGQGVKVTVSS
VL: DIQMTQSPSFLSASVGDRVTINCKASQNIYKYLDWYQQKLGEAPKLLIYNSNILHTGVPSRFSGSGSGTDFTLSISSLQPEDVATYFCLQHNSGWTFGGGSKLELR
notes: also called Anti-PAR-2 antibody # 311
B8: Ab348 (antibody, human IgG4, V domains shown)
VH: QVQLKESGPGLVQPSQTLSLTCSVSGFSLSSYGVIWVRQPPGKGLEWMGVVWGNGNTAYNFTLKSRLTISRDTSKSQVFLKMNNLQTEDTAMYFCGRWRGFKDYPFDYWGQGVMVTVSS
VL: B7 VL with S51T, I53S, V58I, S74T, S101T, R106K
notes: also called Anti-PAR-2 antibody # 348
B9: Ab323 (antibody, human IgG4, V domains shown)
VH: B8 VH with S31T, V34I, V51I, A58H, F61S, T62A, T68S, S70T, F101Y
VL: B7 VL with I48M, S51T, I53T, V58I, S74T, S101T, R106K
notes: also called Anti-PAR-2 antibody # 323
B10: Ab342 (antibody, human IgG4, V domains shown)
VH: B7 VH with T30N, M46D, N60D, P62A, V78I, Y101F
VL: B7 VL with S7T, K24R, Q38L, S51T, I53T, V58I, S74T, T96A, S101T, R106K
notes: also called Anti-PAR-2 antibody # 342
B11: Ab313 (antibody, human IgG4, V domains shown)
VH: EVQLKESGPGLVQPSQTLSLTCTVSGFSLTDYSVHWVRQPPGKGLEWMGVMWSGGSTSYNSPLKSRLSISRDTSKSQVFLKTNSLQTEDTAIYYCTRARPTVATLDYWGQGVMVTVSS
VL: DIQMTQSPSVLSASVGDRVILNCKASQKINKYLNWYQQKLGEAPKLLIYTTNNLQTGIPSRFSGSGSGTDFTLTISSLQPEDFATYFCFQHSSWPTFGAGTKLELK
notes: also called Anti-PAR-2 antibody # 313
B12: Ab360 (antibody, human IgG4, V domains shown)
VH: EVQLVESGGGLVQPGRSLKLSCVASGFTFNNYWMTWIRQAPGKGLEWVASITNTGGSTYYPDSVKGRFTISRDNAKSTLYLQMNSLRSEDTATYYCTREGIRGTGWFAYWGQGTLVTVSS
VL: DTVLTQSPALAVSPGERVTISCRASESVRTRMHWYQQRPGQQPKLLIYGASNPESGVPARFSGSGSGTDFTLTIDPVEADDSATYFCHQSWNEYTFGAGTKLELK
notes: also called Anti-PAR-2 antibody # 360
B13: 309-6e (antibody, human IgG4 S228P, kappa, V domains shown)
VH: EVQLVESGGGLVQPGGSLRLSCAASGFSLNSYGVIWVRQAPGKGLEWVSVIWGNGNTYYNDSVKGRFTISRDNSKNTLYLQMNSLRAEDTAVYYCARWRGYKDYPFDYWGQGTLVTVSS
VL: EIVLTQSPATLSLSPGERATLSCKASQNIYKYLDWYQQKPGQAPRLLIYNTNSLHTGIPARFSGSGSGRDFTLTISSLEPEDFAVYYCLQHNSGWTFGGGTKVEIKR
B14: P24E976 (antibody, human IgG4 S228P, kappa, V domains shown)
VH: QVQLVQSGAEVKKPGSSVKVSCKASGFSLSSYAISWVRQAPGQGLEWMGVIWGNQNVYYAQKFQGRVTITADESTSTAYMELSSLRSEDTAVYYCARWKGYKDYPFDYWGQGTLVTVSS
VL: B13 VL with K24R, I29V, Y32W, T51A, N52Y, L54R, H55A, L89Q, N92H
B15: P24E1103 (antibody, human IgG4 S228P, kappa, V domains shown)
VH: B14 VH
VL: B13 VL with K24R, I29V, Y32W, T51A, S53N, L54R, H55A, L89Q, N92H
B16: P24E1099 (antibody, human IgG4 S228P, kappa, V domains shown)
VH: B14 VH
VL: B13 VL with K24R, I29V, Y32W, T51A, L54R, H55A, L89Q, N92H

The target in the first assay is T1, human PAR-2. The assay is described as follows: cell-based or functional assay.
Regarding B1, the “IC50, PAR-2 β-arrestin cell assay” value turned out to be 9.9 nM.

On to B2, for which the “IC50, PAR-2 β-arrestin cell assay” value was 6 nM.

In the case of B3, the “IC50, PAR-2 β-arrestin cell assay” value was 5.6 nM.

In the case of B4, the “IC50, PAR-2 β-arrestin cell assay” value was 36.7 nM.

Consider B5, for which the “IC50, PAR-2 β-arrestin cell assay” value was 18.2 nM.

Turning to B6, the “IC50, PAR-2 β-arrestin cell assay” value was 13.7 nM.

As to B7, the “IC50, PAR-2 β-arrestin cell assay” value stood at 1.8 nM.

With B8, the “IC50, PAR-2 β-arrestin cell assay” value stood at 2.7 nM.

Regarding B9, the “IC50, PAR-2 β-arrestin cell assay” value was determined as 2.1 nM.

Consider B10, for which the “IC50, PAR-2 β-arrestin cell assay” value is 1.9 nM.

For the molecule B11, the “IC50, PAR-2 β-arrestin cell assay” value came out at 8.2 nM.

Turning to B12, the “IC50, PAR-2 β-arrestin cell assay” value is 16 nM.

The target in a further assay is T1, human PAR-2. The assay is described as follows: cell-based or functional assay. The source holds these as a separate data set.
With B13, the “PAR-2 calcium flux cell assay IC50” value is 12.7 nM and the “PAR-2 β-arrestin cell assay IC50, 1 µM SLIGKV” value amounted to 5.6 nM.

Another assay has as its target T2, human PAR-1. The assay is described as follows: flow cytometry, transfected Expi293F cells. The protocol:
Paired heavy and light chains encoded by these sequence pairs were expressed as a full length human IgG4 isotype antibodies and assessed for PAR-2 binding and selectivity by flow cytometry. […] Cells were used for flow cytometric analysis 36-48 hours post-transfection. Use of Nt-PAR-2 as a target allowed antibodies which bound the N-terminal residues of PAR-2 (which comprise the protease-cleavage sites on PAR-2) to be distinguished from antibodies which bound other extracellular sites on PAR-2, such as the PAR-2-activating ligand-binding site(s). Expi293F cells, transiently expressing one of each of the different target proteins were labelled with different intensities of a single fluorphor Encoder dye (Intellicyt) for 10 mins at either 1 in 250 dilution for high intensity and/or 1 in 1500 dilution for moderate intensity, enabling simultaneous analysis of multiple cell populations. After washing the cells were then mixed in an equal ratio with the unlabeled cell type and analyzed for antibody binding.
The cells were plated in 96 well plates at 2×10⁵ cells/well. Following a wash step using Phosphate buffered saline (PBS), the primary antibody (anti-PAR-2 antibody) was added at a concentration of 10 μg/mL in 50 μL of FACS buffer (0.5% w/v BSA in PBS) to each well and incubated for 10-15 mins. Following a wash step, secondary antibody (anti-human Fc-FITC) was added to the wells at 1:200 dilution in 50 μL for 10-15 mins. Following a washing step, the cells were re-suspended in fluorescence-activated cell sorting (FACS) buffer. The flow cytometry analysis was performed on an Intellicyt iQue screener. Gates were drawn around the different intensities of encoder dye-positive cells and these populations were analyzed separately from each other and the unlabeled cells for binding by the primary antibody.
(In flow cytometry, cells or beads pass a laser one at a time.)
Take B1: the binding result was “no binding (tested: 10 µg/mL)”.

Take B2: the binding result is recorded as “no binding (tested: 10 µg/mL)”.

As for B3, the binding result is “no binding (tested: 10 µg/mL)”.

For the molecule B4, the binding result is recorded as “no binding (tested: 10 µg/mL)”.

B5: the binding result is “no binding (tested: 10 µg/mL)”.

As for B6, the binding result is “no binding (tested: 10 µg/mL)”.

As to B7, the binding result is listed as “no binding (tested: 10 µg/mL)”.

As for B8, the binding result is reported as “no binding (tested: 10 µg/mL)”.

Take B9: the binding result is on record as “no binding (tested: 10 µg/mL)”.

With B10, the binding result is reported as “no binding (tested: 10 µg/mL)”.

In the case of B11, the binding result is “no binding (tested: 10 µg/mL)”.

With B12, the binding result is on record as “no binding (tested: 10 µg/mL)”.

Another assay concerns the target T1, human PAR-2. The assay is described as follows: cell-based or functional assay. This is another data set of the same source.
On to B14, for which the “PAR-2 β-arrestin cell based assay IC50, 2 µM SLIGKV” value was 0.9 nM and 1.26 nM.

For B15, the “PAR-2 β-arrestin cell based assay IC50, 2 µM SLIGKV” value is 1.54 nM.

Take B16: the “PAR-2 β-arrestin cell based assay IC50, 2 µM SLIGKV” value turned out to be 1.37 nM.

In the next assay the target is T1, human PAR-2. The assay is described as follows: cell-based or functional assay. The source holds these as a separate data set.
With B14, the “Calcium flux IC50” value is 15.9 nM and 15.3 nM and 7.1 nM and 5.9 nM; the “IL-6 release in A549 cells IC50” value was 5.63 nM; the “IL-8 release in A549 cells IC50” value was found to be 4.25 nM.

Consider B15, for which the “Calcium flux IC50” value stood at 12.7 nM, the “IL-6 release in A549 cells IC50” value came out at 7.18 nM and the “IL-8 release in A549 cells IC50” value was 5.17 nM.

On to B16, for which the “Calcium flux IC50” value came out at 12.3 nM, the “IL-6 release in A549 cells IC50” value was 6.74 nM and the “IL-8 release in A549 cells IC50” value was 4.89 nM.
